# Source: US20250313621A1 (NXERA PHARMA UK, published 2025)
# T1: Wildtype human PAR2 expressed on cells (human, UniProt P55085 37-397)
# T1 sequence: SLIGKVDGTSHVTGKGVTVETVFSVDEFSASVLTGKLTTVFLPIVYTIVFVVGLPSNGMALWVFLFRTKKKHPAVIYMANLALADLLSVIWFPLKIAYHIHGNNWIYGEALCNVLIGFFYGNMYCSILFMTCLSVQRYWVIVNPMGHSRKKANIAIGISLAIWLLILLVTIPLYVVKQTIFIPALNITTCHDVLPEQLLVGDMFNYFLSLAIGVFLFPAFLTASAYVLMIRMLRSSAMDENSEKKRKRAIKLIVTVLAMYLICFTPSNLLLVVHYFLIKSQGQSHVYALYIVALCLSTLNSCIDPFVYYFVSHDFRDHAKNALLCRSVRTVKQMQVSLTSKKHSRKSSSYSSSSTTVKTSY
# T2: Wildtype human PAR 1 (human, UniProt P25116 42-425)
# T2 sequence: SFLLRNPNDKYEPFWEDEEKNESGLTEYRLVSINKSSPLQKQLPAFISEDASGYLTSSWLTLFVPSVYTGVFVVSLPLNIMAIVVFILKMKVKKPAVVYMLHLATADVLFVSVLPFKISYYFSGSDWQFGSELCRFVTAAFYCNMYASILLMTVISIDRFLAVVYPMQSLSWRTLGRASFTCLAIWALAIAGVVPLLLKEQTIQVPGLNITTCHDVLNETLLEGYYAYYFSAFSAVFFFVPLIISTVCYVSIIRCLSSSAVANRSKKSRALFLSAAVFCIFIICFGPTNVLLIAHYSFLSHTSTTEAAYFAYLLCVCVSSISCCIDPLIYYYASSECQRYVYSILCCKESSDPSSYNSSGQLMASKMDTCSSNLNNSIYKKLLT
# T3: Soluble PAR2 StaR (recombinant human PAR2 StaR protein in detergent, construct not stated) (human, UniProt P55085 37-377, limits assumed)
# T3 construct: also called purified PAR2
# T3 sequence: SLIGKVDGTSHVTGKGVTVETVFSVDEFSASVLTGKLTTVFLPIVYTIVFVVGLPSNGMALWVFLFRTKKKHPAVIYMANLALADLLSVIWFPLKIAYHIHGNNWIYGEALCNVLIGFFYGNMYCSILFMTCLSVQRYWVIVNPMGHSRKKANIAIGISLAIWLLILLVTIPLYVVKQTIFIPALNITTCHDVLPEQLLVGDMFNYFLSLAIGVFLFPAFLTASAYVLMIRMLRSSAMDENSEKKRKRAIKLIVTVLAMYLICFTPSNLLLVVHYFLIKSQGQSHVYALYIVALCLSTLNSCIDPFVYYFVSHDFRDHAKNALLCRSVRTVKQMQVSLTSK
# T4: PAR2-3: P157: 1-377, glycosylated, pBacMamHisStrepII, full length (human, UniProt P55085 26-377)
# T4 construct: detergent-solubilised analyte in SPR, or on infected cells in flow cytometry; also called FL-N PAR2 StaR; FL-N StaR; not shown: C-terminal StrepII and deca-histidine tags
# T4 sequence: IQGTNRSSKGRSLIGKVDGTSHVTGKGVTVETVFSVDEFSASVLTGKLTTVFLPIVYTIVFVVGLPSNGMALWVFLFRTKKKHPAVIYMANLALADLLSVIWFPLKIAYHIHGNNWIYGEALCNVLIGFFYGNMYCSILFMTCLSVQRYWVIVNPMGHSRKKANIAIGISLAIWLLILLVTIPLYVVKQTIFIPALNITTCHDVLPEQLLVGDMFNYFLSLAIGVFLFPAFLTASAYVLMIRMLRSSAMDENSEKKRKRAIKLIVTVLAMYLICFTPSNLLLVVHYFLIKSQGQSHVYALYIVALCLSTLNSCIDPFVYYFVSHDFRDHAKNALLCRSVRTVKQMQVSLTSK
# Assays:
# [1] = biological target: T1, Wildtype human PAR2 expressed on cells; experiment: cell-based or functional assay
# [2] = biological target: T1, Wildtype human PAR2 expressed on cells; experiment: cell-based or functional assay; remark: listed apart in the source
# Wildtype human PAR 1 = biological target: T2, Wildtype human PAR 1; experiment: cell-based or functional assay
# [3] = biological target: T3, Soluble PAR2 StaR (recombinant human …); experiment: SPR Biacore T200; IgG captured, PAR2 as analyte; 37 C, 30 min dissociation
# Protocol: The assay of PAR2 interaction with anti-PAR2 antibodies was carried out using a Biacore T200 instrument (GE Healthcare). Anti-human IgG antibody (Human Antibody Capture Kit, GE Healthcare) was immobilised by amine coupling in the target and reference flow cells of sensor chip CM3 (GE Healthcare) to a surface density of 2700 to 3000 resonance units (RU). Immobilisation was carried out at 25° C. in HBS-EP+buffer (GE Healthcare). The buffer was then changed to 50 mM HEPES, pH 7.5, 150 mM NaCl, 0.02% LMNG, 0.002% CHS for the PAR2-antibody interaction assay which was carried out at either 25 or 37° C. Each cycle of the assay began with antibody capture in the target flow cell to a level of 400 to 450 RU. PAR2 was then injected over target and reference flow cells at three concentrations, 5 min each, followed by 30-min dissociation. The surface was then regenerated with a solution provided in the kit (Human Antibody Capture Kit, GE Healthcare). With every antibody tested the first cycle was a blank (three injections of the running buffer) and the second a series of 50, 100, and 200 nM PAR2 injections.
# [4] = biological target: T4, PAR2-3: P157: 1-377, glycosylated, …; experiment: SPR (table head: Octet); IgG captured via Fc, detergent solubilised FL-N PAR2 StaR as analyte
# Protocol: (§1) For all eleven IgG1f_AEASS, affinities to human PAR2 were determined by SPR. The IgGs were captured via their Fc-fragment and detergent (LMNG/CHS) solubilised FL-N PAR2 StaR was used as analyte in solution. 50 mM HEPES pH 7.5, 150 mM NaCl, 0.02% LMNG was used as assay buffer. To minimize artefacts introduced by non-specific interaction of FL-N PAR2 StaR with the sensors, the CM3 sensors were used as basis to immobilize a high density of anti-hu-Fc capture antibody (BR-1008-39, GE Healthcare). IgGs were captured with relatively high levels of approximately 500 RU to achieve a higher ratio of specific to non-specific binding (while still maintaining conditions suitable for kinetic characterization). Affinities ranged from 6.5 nM to 130 pM. The koff values of the best candidates were at the lower assay limit. A minimum koff of 2.00E-05 s⁻¹ was reported (corresponding to 3% dissociation in 1500 s).
# [5] = biological target: T4, PAR2-3: P157: 1-377, glycosylated, …; experiment: SPR (table head: Octet); IgG captured via Fc, FL-N PAR2 StaR as analyte; koff at the lower assay limit (minimum 2.00E-05 reported)
# Protocol: as §1
"% Max Inhibition, Bovine Trypsin challenge, IP-One [1]","AP IC50, HT-29 FLIPR calcium mobilisation [2]","Trypsin IC50, HT-29 FLIPR calcium mobilisation [2]","Human PAR1 SFLLR IC50, IP-One (Wildtype human PAR 1)","SFLLR fold inhibition, human PAR1, IP-One (Wildtype human PAR 1)",Kd [3],koff [3],kon [3],t½ [3],kon [4],koff [5],Binder
10%,17.8 nM,40 nM,> 3160 nM,0 fold,0.45 nM,1.9e-05 s⁻¹,41000 M⁻¹ s⁻¹,10.3 h,96000 M⁻¹ s⁻¹,≤ 2e-05 s⁻¹,"Y022870 (antibody, human IgG1, lambda, V domains shown, also called Y22870) VH: EVQLLESGGGLVQPGGSLRLSCAASGFSFSRYAITWVRQAPGKGLEWVSTISALGLETYYAESVRGRFTISRDNSKNTLYLQMNSLRAEDTAVYYCARGFHYTHSGKRYYYPFDIWGQGTLVTVSS VL: QSALTQPASVSGSPGQSITISCTGTSSDVGSYNLVSWYQQHPGKAPKLMIYEGSKRPSGVSNRFSGSKSGNTASLTISGLQAEDEADYYCSQYATFIAFAVFGGGTKLTVLG"
58%,44.3 nM,49 nM,> 3160 nM,0 fold,0.55 nM,1.7e-05 s⁻¹,31000 M⁻¹ s⁻¹,11.5 h,68000 M⁻¹ s⁻¹,2e-05 s⁻¹,"Y022877 (antibody, human IgG1, lambda, V domains shown, also called Y22877) VH: EVQLLESGGGLVQPGGSLRLSCAASGFTFSRYAMTWVRQAPGKGLEWVSTISGLGQEAYYAGSVKGRFTISRDNSKNTLYLQMNSLRAEDTAVYYCARGFHYTHSGKRYYYPFDIWGQGTLVTVSS VL: QSALTQPASVSGSPGQSITISCTGTSSDVGSYNLVSWYQQHPGKAPKLMIYEGSKRPSGVSNRFSGSKSGNTASLTISGLQAEDEADYYCSQYATFIAFAVFGGGTKLTVLG"
48%,42 nM,47 nM,> 3160 nM,0 fold,0.65 nM,2.3e-05 s⁻¹,36000 M⁻¹ s⁻¹,8.3 h,140000 M⁻¹ s⁻¹,2e-05 s⁻¹,"Y022883 (antibody, human IgG1, lambda, V domains shown, also called Y22883; Y02283) VH: EVQLLESGGGLVQPGGSLRLSCAASGFSFTRYAISWVRQAPGKGLEWVSVISGHGSEANYAESVKGRFTISRDNSKNTLYLQMNSLRAEDTAVYYCARGFHYTHSGKRYYYPFDIWGQGTLVTVSS VL: QSALTQPASVSGSPGQSITISCTGTSSDVGSYNLVSWYQQHPGKAPKLMIYEGSKRPSGVSNRFSGSKSGNTASLTISGLQAEDEADYYCSQYATFIAFAVFGGGTKLTVLG"
